B1: affinity purified Amb a I: protein affinity purified from pollen extract with monoclonal antibody 4B5/B7 (protein)
chain: AEDLQEILPVNETRRLTTSGAYNIIDGCWRGKADWAENRKALADCAQGFGKGTVGGKDGDIYTVTSELDDDVANPKEGTLRFGAAQNRPLWIIFERDMVIRLDKEMVVNSDKTIDGRGAKVEIINAGFTLNGVKNVIIHNINMHDVKVNPGGLIKSNDGPAAPRAGSDGDAISISGSSQIWIDHCSLSKSVDGLVDAKLGTTRLTVSNSLFTQHQFVLLFGAGDENIEDRGMLATVAFNTFTDNVDQRMPRCRHGFFQVVNNNYDKWGSYAIGGSASPTILSQGNRFCAPDERSKKNVLGRHGEAAAESMKWNWRTNKDVLENGAIFVASGVDPVLTPEQSAGMIPAEPGESALSLTSSAGVLSCQPGAPC
B2: Amb a IA: full-length recombinant Amb a IA, amino acid 10-398, E. coli expressed, used as crude bacterial lysate (protein)
chain: LYFTLALVTLLQPVRSAEDLQEILPVNETRRLTTSGAYNIIDGCWRGKADWAENRKALADCAQGFGKGTVGGKDGDIYTVTSELDDDVANPKEGTLRFGAAQNRPLWIIFERDMVIRLDKEMVVNSDKTIDGRGAKVEIINAGFTLNGVKNVIIHNINMHDVKVNPGGLIKSNDGPAAPRAGSDGDAISISGSSQIWIDHCSLSKSVDGLVDAKLGTTRLTVSNSLFTQHQFVLLFGAGDENIEDRGMLATVAFNTFTDNVDQRMPRCRHGFFQVVNNNYDKWGSYAIGGSASPTILSQGNRFCAPDERSKKNVLGRHGEAAAESMKWNWRTNKDVLENGAIFVASGVDPVLTPEQSAGMIPAEPGESALSLTSSAGVLSCQPGAPC
B3: Amb a IC: E. coli expressed recombinant Amb a IC, used as crude bacterial lysate (protein)
chain: LYFTLALVALLQPVRSAEGVGEILPSVNETRSLQACEALNIIDKCWRGKADWENNRQALADCAQGFAKGTYGGKWGDVYTVTSNLDDDVANPKEGTLRFAAAQNRPLWIIFKNDMVINLNQELVVNSDKTIDGRGVKVEIINGGLTLMNVKNIIIHNINIHDVKVLPGGMIKSNDGPPILRQASDGDTINVAGSSQIWIDHCSLSKSFDGLVDVTLGSTHVTISNCKFTQQSKAILLGADDTHVQDKGMLATVAFNMFTDNVDQRMPRCRFGFFQVVNNNYDRWGTYAIGGSSAPTILCQGNRFLAPDDQIKKNVLARTGTGAAESMAWNWRSDKDLLENGAIFVTSGSDPVLTPVQSAGMIPAEPGEAAIKLTSSAGVFSCRPGAPC
B4: Amb a IB: E. coli expressed recombinant Amb a IB, used as crude bacterial lysate (protein)
chain: LYFTLALVTLLQPVRSAEDVEEFLPSANETRRSLKACEAHNIIDKCWRCKADWANNRQALADCAQGFAKGTYGGKHGDVYTVTSDKDDDVANPKEGTLRFAAAQNRPLWIIFKRNMVIHLNQELVVNSDKTIDGRGVKVNIVNAGLTLMNVKNIIIHNINIHDIKVCPGGMIKSNDGPPILRQQSDGDAINVAGSSQIWIDHCSLSKASDGLLDITLGSSHVTVSNCKFTQHQFVLLLGADDTHYQDKGMLATVAFNMFTDHVDQRMPRCRFGFFQVVNNNYDRWGTYAIGGSSAPTILSQGNRFFAPDDIIKKNVLARTGTGNAESMSWNWRTDRDLLENGAIFLPSGSDPVLTPEQKAGMIPAEPGEAVLRLTSSAGVLSCHQGAPC

What was measured:
[1] = system: human IgE (ragweed allergic patient sera); experiment: SDS-PAGE Western blot (and ELISA) of ragweed allergic patient IgE binding to pollen, affinity purified and recombinant Amb a I / Amb a II; design: key to IgE binding, summarized Western blot data: −: no signal over background; +−: barely discernable over background; +: clearly positive; ++: strongly positive; +++: highly positive; conditions: for Human IgE binding (in words): Western blot (FIG. 17) and/or ELISA, ragweed allergic patient IgE; for Extent of specific IgE binding relative to Amb a IB or Amb a II (in words): patient #295, FIG. 20
Procedure: As represented in FIG. 1A, a selected monoclonal antibody (designated 4B5/B7) which recognizes an Amb a I preparation unsubjected to denaturing conditions was used to affinity purify from pollen extract a single protein, which is referred to as affinity purified Amb a I. This was carried out, using known techniques, by producing the desired monoclonal antibody, isolating it in large quantities from ascites and immobilizing it on Sepharose (Pharmacia). Aqueous pollen extract was passed over the monoclonal antibody-containing column and a protein species was eluted.
Furthermore, full-length and truncated cDNAs encoding several members of the Amb a I multigene family, as well as Amb a II, were cloned in-frame into the expression vector pTrc99 (Amann et al. Gene, 69:301-315, (1988)) and transformed into the JM109 host. Expression of recombinant Amb a I and Amb a II protein was induced by 1 mM isopropyl-β-D-thiogalactopyranoside, cells were harvested, lysozyme treated, sonicated and insoluble inclusion bodies recovered by a low speed centrifugation. Recombinant Amb a I and Amb a II protein present in the recovered pellet was solubilized in buffer containing 8M urea, 50 mM Tris HC1 pH8.0, 50 mM NaCl, 1 mM EDTA, 1 mM dithiothreitol, 1 mM phenylmethylsulfonyl fluoride. After solubilization, the crude urea lysate was dialyzed at 4° C. against PBS. […] This antigenic cross-reactivity is consistent with the observed sequence homology of the cDNAs (see FIG. 16).
Comparison of human IgE binding to recombinant Amb a I and Amb a II proteins with anti-peptide and monoclonal anti-Amb a I antibodies have provided data consistent with the conclusion that the N-terminal portion (historically referred to as the β-region) of Amb a IA includes the major IgE eptiope(s).
Affinity purified Amb a I was electrophoresed, Western transferred (Towbin et al., Proc. Natl. Acad. Sci. USA, 76:4350 (1979)) and probed with a variety of antibodies, including IgE from an allergic patient (FIG. 17). In pollen extract Amb a I is not only present as an intact 38-KD species, but also characterized by its component 26KD alpha chains and 12-KD beta chains which are formed by enzymatic cleavage. The intact 38-KD species and the alpha chain are clearly detected using rabbit anti-Amb a I, polyclonal affinity purified anti-RAE 16 and monoclonal anti-Amb a I JBIE3-4 (FIG. 17); RAE 16 peptide has the sequence RTDKDLLENGAIC derived from amino-acids […] of Amb a IB, FIG. 16). Affinity purified Amb a I (partial sequence presented in Table 1) as well as chromatographically purified Amb a II (partial sequence presented in Table 2) are bound on Western blots by these antibodies as well as by patient IgE (FIG. 17). The goat anti-Amb a I polyclonal antibody also binds multiple Amb a I and Amb a II species on a two dimensional Western blot of pollen extract (FIG. 18). The Western blot was performed as outlined below. […]

[2] = system: rabbit anti-Amb a I polyclonal antibody; experiment: Western blot with rabbit anti-Amb a I polyclonal antibody (FIG. 17); format: binding
From the text: As is also represented in FIG. 1A, rabbit polyclonal antibodies were produced using the King Antigen E preparation. […] These antibodies were also shown, using a similar technique, to bind to the affinity purified Amb a I described previously (FIG. 17).
It is clear from the antibody reactivity that the 4B5/B7 affinity purified Amb a I has a recognition pattern similar to that of the Amb a I of pollen and skin test reagent with both rabbit polyclonal anti-Amb a I and JB1E3-4 anti-Amb a I monoclonal antibody (FIG. 17).
Affinity purified Amb a I was electrophoresed, Western transferred (Towbin et al., Proc. Natl. Acad. Sci. USA, 76:4350 (1979)) and probed with a variety of antibodies, including IgE from an allergic patient (FIG. 17). In pollen extract Amb a I is not only present as an intact 38-KD species, but also characterized by its component 26KD alpha chains and 12-KD beta chains which are formed by enzymatic cleavage. The intact 38-KD species and the alpha chain are clearly detected using rabbit anti-Amb a I, polyclonal affinity purified anti-RAE 16 and monoclonal anti-Amb a I JBIE3-4 (FIG. 17); RAE 16 peptide has the sequence RTDKDLLENGAIC derived from amino-acids 343-353 of Amb a IB, FIG. 16). […]

Row | Molecule | Human IgE binding (in words) [1] | Human IgE binding (in words) ([1]; listed as 4B5/B7 affinity purified Amb a I) | Human IgE binding (in words) ([1]; listed as Affinity purified Amb a I) | Binding by rabbit anti-Amb a I polyclonal antibodies (in words) [2] | IgE binding, summarized Western blot data ([1]; patient 151) | IgE binding, summarized Western blot data ([1]; patient 222) | IgE binding, summarized Western blot data ([1]; patient 291) | IgE binding, summarized Western blot data ([1]; patient 295) | IgE binding, summarized Western blot data ([1]; patient 296) | Extent of specific IgE binding relative to Amb a IB or Amb a II (in words) [1]
1 | B1 | bind human IgE | readily detectable IgE reactivity | bound | bind |  |  |  |  |  | 
2 | B2 |  |  |  |  | + | +− | +++ | +++ | ++ | far greater extent
3 | B3 |  |  |  |  | + | +− | +++ | +++ | ++ | far greater extent
4 | B4 |  |  |  |  | − | +− | − | + |  | 

— US6335019B1, “Methods for treating sensitivity to protein allergen using peptides which include a T cell epitope recognized by a T cell receptor specific for the protein allergen” (Immulogic Pharmaceutical Corp., priority 1989, dated 2002)
